This test has as its target CD3E on human peripheral blood T lymphocytes (human) (UniProt P07766). Description: cell-based or functional assay.

CD3E on human peripheral blood T lymphocytes (human), sequence (P07766 23-207): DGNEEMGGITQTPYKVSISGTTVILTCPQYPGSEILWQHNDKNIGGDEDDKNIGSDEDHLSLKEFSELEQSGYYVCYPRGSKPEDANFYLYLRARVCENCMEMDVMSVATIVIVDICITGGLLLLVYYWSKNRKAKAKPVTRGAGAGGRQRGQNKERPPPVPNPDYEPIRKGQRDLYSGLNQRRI

As for OKT3 (antibody), the IL-2 in the supernatant of PBMC after 48 h on plate-coated antibody (1 μg/mL), IL-2 ELISA was 400 pg/mL.

For the origin of these results see patent CN109879965A.
